# Values of other authors, collected in patent US20140322315A1, “CYSTEAMINE AND/OR CYSTAMINE FOR TREATING ISCHEMIC INJURY” (The Regents of the University of California, priority 2011, published 2014).
# B1: tPA: tissue plasminogen activator, FDA approved 1996 as therapy for acute ischemic stroke (protein, UniProt P00750 36-562, looked up)
# Tissue-type plasminogen …: SYQVICRDEKTQMIYQQHQSWLRPVLRSNRVEYCWCNSGRAQCHSVPVKSCSEPRCFNGGTCQQALYFSDFVCQCPEGFAGKCCEIDTRATCYEDQGISYRGTWSTAESGAECTNWNSSALAQKPYSGRRPDAIRLGLGNHNYCRNPDRDSKPWCYVFKAGKYSSEFCSTPACSEGNSDCYFGNGSAYRGTHSLTESGASCLPWNSMILIGKVYTAQNPSAQALGLGKHNYCRNPDGDAKPWCHVLKNRRLTWEYCDVPSCSTCGLRQYSQPQFRIKGGLFADIASHPWQAAIFAKHRRSPGERFLCGGILISSCWILSAAHCFQERFPPHHLTVILGRTYRVVPGEEEQKFEVEKYIVHKEFDDDTYDNDIALLQLKSDSSRCAQESSVVRTVCLPPADLQLPDWTECELSGYGKHEALSPFYSERLKEAHVRLYPSSRCTSQHLLNRTVTDNMLCAGDTRSGGPQANLHDACQGDSGGPLVCLNDGRMTLVGIISWGLGCGQKDVPGVYTKVTNYLDWIRDNMRP
# System: acute ischemic stroke
molecule,measurement,setting,value
B1,improvement in clinical outcome,"some, but not all, of the controlled trials in acute ischemic stroke",30-55%
same,"complete resolution of symptoms, share of the time",thrombolytic therapy with tPA,less than 40%
